Reference: the supplement of paper PMC7125110
± gives the standard error. This sample holds only a part of the variants without activity.

B1: glmS ribozyme (parent)
chain: AUAAAAGCGCCAGAACUACAGAAAUGUAGUUGACGAGGAGGAGGUUUAUCGAAUUUUCGGCGGAUGCCUCCAAA

Variants of: B1
Assay: self-cleavage kobs at 2500 uM GlcN6P; higher = faster cleavage; RNA array
Conditions: with glucosamine-6-phosphate
Method in brief: (§1)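 Glucosamine-6-phosphate (40 μM to 10 mM) in HEPES/KCl/Mg(OAc)2 buffer was flowed over sequenced MiSeq chips, and tiles were imaged over ~14 h. Barcoded ribozyme variants there had been transcribed in situ by E. coli RNA polymerase and were tracked through a hybridised Cy3 probe at 37 °C. One- or two-exponential decay fits to per-tile medians, normalised to baseline and to non-cleaving reference variants, gave kobs. kcat and KM came from weighted Michaelis–Menten fits across concentrations.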

| Variant | self-cleavage kobs at 2500 uM GlcN6P [s⁻¹] |
| --- | --- |
| U31G A36U C50A C71G | 0.000265 ± 0.00012 |
| A14C U31G A39G G66U | 0.00126 ± 0.00036 |
| A52U U54A C67U | 0.000187 ± 5.3e-05 |
| C10G A12G U47G U54C C68U | < 1e-05 |
| A52G U54G C68G | 7.13e-05 ± 2.9e-05 |
| C10G G40C G59U | < 1e-05 |
| A14C G29C A64G | 5.47e-05 ± 2e-05 |
| A15U A33C A39G C71G | < 1e-05 |
| G9A G51U U56G G63C | < 1e-05 |
| A15C U31A A53G C71G | 0.000222 ± 4.5e-05 |
| C8G G35A G43C U69G | < 1e-05 |
| G7U G9A C67A | < 1e-05 |
| C10G G13C A42U A52C | < 1e-05 |
| U31G U56C G62A | < 1e-05 |
| G32A A39U U69A | < 1e-05 |
| C16U A53U A64U | 4.5e-05 ± 2.3e-05 |
| C11G A52U C68U | < 1e-05 |
| G43U U47C G63A | < 1e-05 |
| U30C G35C U49A | < 1e-05 |
| U31C A64C U65G | < 1e-05 |
| G37A A64C C67G | < 1e-05 |
| G29C C34A U47A U56C | < 1e-05 |
| C16U U46C C61G | < 1e-05 |

| Variant | self-cleavage kobs at 2500 uM GlcN6P [s⁻¹] |
| --- | --- |
| C11U G40A U46A G59C | < 1e-05 |
| G38A U45C A52U | < 1e-05 |
| G9C G13U A48G | < 1e-05 |
| C10G U47C A53U U54A C70U | < 1e-05 |
| G40A G44A | 4.13e-05 ± 1.2e-05 |
| G13A A33C C70U | < 1e-05 |
| U54A G63A C70U | < 1e-05 |
| G40U G66A C70U | 0.0016 ± 0.00053 |
| G9A A39G A52C | < 1e-05 |
| G41A G63U C70U | < 1e-05 |
| G40U A48C C50U | < 1e-05 |
| C16G A39C C61U G63C | < 1e-05 |
| G29U G44A U46C U65C | < 1e-05 |
| G13A G35A G44A | < 1e-05 |
| A6G A14G G40A | 3.86e-05 ± 1.1e-05 |
| C11G G26U G43C | < 1e-05 |
| A39C U47C U55A | 0.000971 ± 0.00023 |
| C10U A48C C58U | < 1e-05 |
| C11U A15G G29U | < 1e-05 |
| C34G G35C G66A | < 1e-05 |
| A14G A15U A48U | 0.000128 ± 4.1e-05 |
| A33C G40A A48C G51C G60C | < 1e-05 |
| A14C A39C U65G | < 1e-05 |

| Variant | self-cleavage kobs at 2500 uM GlcN6P [s⁻¹] |
| --- | --- |
| A33G G35A G44U G59C C70U | < 1e-05 |
| C34G U57G C70G | 0.00021 ± 4.8e-05 |
| U45G C50U U56G G59C | < 1e-05 |
| G35U U56A C71U | < 1e-05 |
| G35C U49G G62U C71G | < 1e-05 |
| A14G U30A C50A | 8.06e-05 ± 2.8e-05 |
| G38A G44C | < 1e-05 |
| A14U G40C G66C | 9.83e-05 ± 2.2e-05 |
| C34U C58U U65A | < 1e-05 |
| A15U G32U A36G A64G C68U | < 1e-05 |
| A14U A33G A52G C68U C70G C71A | 0.000285 ± 9.7e-05 |
| A15G U55G C71U | 0.00368 ± 0.0014 |
| U46G U49G C50U A52G | < 1e-05 |
| A12C U46C C70A | 3.42e-05 ± 1.2e-05 |
| A15G G38A A48U | < 1e-05 |
| A12U A15U C50A G51A G59C | < 1e-05 |
| A36C A48G C70G | < 1e-05 |
| A6C A48G A52G | < 1e-05 |
| A6U A36G U46C A52G C67U | < 1e-05 |
| G32U G35A A64G C71U | < 1e-05 |
| A36G G40U U45G | < 1e-05 |
| G9A G35C A64C C71U | < 1e-05 |
| C8G A33U U56G G59U | < 1e-05 |

| Variant | self-cleavage kobs at 2500 uM GlcN6P [s⁻¹] |
| --- | --- |
| A12U A14G G32U | 0.000861 ± 0.00015 |
| A6U C8G G44C A53G | < 1e-05 |
| G7A C8G G63U | < 1e-05 |
| C10U G35U G43C | < 1e-05 |
| A14C G32A C67G | 6.42e-05 ± 1.9e-05 |
| C11U A14G A33G C68A C71A | 0.000684 ± 0.00034 |
| C19A C34A | < 1e-05 |
| A6U G37U G40U | < 1e-05 |
| A33C G37U U57A G59U | < 1e-05 |
| A6U G41U G59A G62C | < 1e-05 |
| G9U G13U A14G G37A G60C C71U | < 1e-05 |
| U56A C58G C67U | 4.09e-05 ± 1.7e-05 |
| A12U U31C U57G | 5.17e-05 ± 1.8e-05 |
| A14U A48C C70U | 3.58e-05 ± 1.6e-05 |
| A36U A39G C67G | < 1e-05 |
| A6C A39C G60U | < 1e-05 |
| A14C C16U G43C | < 1e-05 |
| A42G G51C G60C C68G | < 1e-05 |
| A36C G37A G38A U56A C68G | 6.64e-05 ± 2.3e-05 |
| A12G A14C A15C | 6.38e-05 ± 2.6e-05 |
| C8G G9A A14U U31G A39C U47A A64G C70U | < 1e-05 |
| C11G U31A A42C | < 1e-05 |
| G32U G44C U47G | < 1e-05 |

| Variant | self-cleavage kobs at 2500 uM GlcN6P [s⁻¹] |
| --- | --- |
| G7U A12C C16U G60A | < 1e-05 |
| A6C A12G G37A | < 1e-05 |
| C8G A36G G38A A52G U65G U69G | 5.4e-05 ± 1.8e-05 |
| A14G U56G C71U | 0.0458 ± 0.019 |
| A12C A14G U69G | 0.000112 ± 3.2e-05 |
| A53C U55G G66A | 0.00165 ± 0.00032 |
| A15C C34G U57A | < 1e-05 |
| A14G U45G C71U | 0.0021 ± 0.0006 |
| A39G U57A C61A | < 1e-05 |
| A6G A15U G59C | < 1e-05 |
| A15G G29U A39G C67U | 0.000169 ± 5.3e-05 |
| G13U U49C C50A G59A C70G | 3.99e-05 ± 2e-05 |
| G40A U65C | 0.000394 ± 0.00015 |
| G13U A48G U57G | < 1e-05 |
| C11A G32A G43C U46A C50A G60A | < 1e-05 |
| C34U G35A G44C U54A U65G | < 1e-05 |
| G7U G9C U47A U56G G59U C70A | < 1e-05 |
| A6G G40A A48G A53G C67U | < 1e-05 |
| C11A C34G A36U G40A A52G A53U | < 1e-05 |
| U55A G59A A64G | 2.94e-05 ± 1.4e-05 |
| C34U C50U | < 1e-05 |
| G13C C16U C71U | 7.64e-05 ± 1.7e-05 |
| C11A G35U C58G | < 1e-05 |

| Variant | self-cleavage kobs at 2500 uM GlcN6P [s⁻¹] |
| --- | --- |
| A6G C11G A33U G59C | < 1e-05 |
| G32U A64G G66A | 0.000236 ± 5.9e-05 |
| G38C G60C G66U | < 1e-05 |
| A12U A48U G51C G60U | < 1e-05 |
| A36U G63A | < 1e-05 |
| A12G C16U U69G | 6.28e-05 ± 2.8e-05 |
| A12C A39G U47C | 0.00269 ± 0.00067 |
| C8A A12C A36U G59U | < 1e-05 |
| C58A U65G C70U | 6.2e-05 ± 2.7e-05 |
| U65G C67G C68G | 3.55e-05 ± 1.4e-05 |
| C8U U57G C71G | < 1e-05 |
| A6U A14U A33G C61U | < 1e-05 |
| C16G G43U G62A | < 1e-05 |
| U45C G66U C70G | 7.12e-05 ± 3.1e-05 |
| A12U A48U C58U | < 1e-05 |
| G9A A12G U54A C58G C61G C70U | 0.000354 ± 0.00012 |
| U47C U56A A64G | 0.000616 ± 0.00019 |
| A33U G37C C70G | < 1e-05 |
| A14U U30C G62C U69G | < 1e-05 |
| A15U G32A A39U C71U | 0.000236 ± 0.00011 |
| U30G G41C C58U | < 1e-05 |
| A14G A36U A39C | < 1e-05 |
| C11G U46G G59C U65G | 0.000186 ± 8.3e-05 |

| Variant | self-cleavage kobs at 2500 uM GlcN6P [s⁻¹] |
| --- | --- |
| G13C G41A U45A C70U | 8.8e-05 ± 2e-05 |
| C34A G59A C70A | < 1e-05 |
| C8A A33C U45C G59A | < 1e-05 |
| G35U G40A G41U U45G A53G | < 1e-05 |
| G32A A33U G51U | < 1e-05 |
| A24C G29U A64G | 0.000837 ± 0.00014 |
| C10G G41A | < 1e-05 |
| A15G U30G A64G | 0.00272 ± 0.00073 |
| G29U U31A U69G C70A | 8.63e-05 ± 2.8e-05 |
| A12C G13A A14G U31G | 7.54e-05 ± 3e-05 |
| C16G C50U A53C C68G | 0.000113 ± 4.6e-05 |
| G13A G44U U45A U57A U69C | < 1e-05 |
| G41U G51U G62C | < 1e-05 |
| A6C A12G A15G | < 1e-05 |
| A39U U46G C70A | 0.000101 ± 2.8e-05 |
| G9C U45A | < 1e-05 |
| A14C U45A A64U | 4.3e-05 ± 1.9e-05 |
| G26U G41C | 0.000123 ± 3.4e-05 |
| C34A A42U U47A | < 1e-05 |

Variants of: B1
Assay: self-cleavage kobs at 10000 uM GlcN6P; higher = faster cleavage; RNA array
Conditions: with glucosamine-6-phosphate
Method in brief: as §1

| Variant | self-cleavage kobs at 10000 uM GlcN6P [s⁻¹] |
| --- | --- |
| C34A C58G C68G | 0.000608 ± 0.00016 |
| C11U A15G C16U C50G U54G U56A U69C | < 1e-05 |
| G7U A15U C50G A53U U55G G62U | 7.67e-05 ± 2.5e-05 |
| G41A G63U C70U | < 1e-05 |
| G38A G44C | < 1e-05 |
| A14U G40C G66C | 0.00012 ± 2.4e-05 |
| A12U A14G G32U | 0.00275 ± 0.00043 |
| A6U A14U G29U | < 1e-05 |
| C11G U31A A42C | < 1e-05 |
| A15G U65C C67U | 7.42e-05 ± 1.7e-05 |
| G40A U65C | 0.000296 ± 6.1e-05 |
| G13C C16U C71U | 0.000169 ± 5.1e-05 |
| G26U U49G U56A | 0.00027 ± 6.8e-05 |
| A15U G32A A39U C71U | 0.000208 ± 6.3e-05 |
| A39U U46G C70A | 0.000162 ± 3.2e-05 |
